# Experimental data from the supplement of paper PMC10899765.
# How the values were obtained:
# Conditions in all cases: 20 nM; 72 h
# MCF10A [1] = test: one-nucleolus phenotype percent effect (relative to siNT 0% and siNOL11 100%); higher = more cells with one nucleolus (ribosome biogenesis inhibition)
# Protocol: (§1)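 After 72 h, cells were fixed and stained with Hoechst and anti-fibrillarin, and nucleoli per nucleus were counted with CellProfiler. Values are plate-adjusted percent effect for the one-nucleolus and 5+ nucleoli phenotypes, normalised to siNT (0%) and to the positive controls siNOL11 or siKIF11 (100%), as the mean of biological triplicates. Percent viability is the nuclei count relative to siNT.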
# MCF10A [2] = test: 5+ nucleoli phenotype percent effect (relative to siNT 0% and siKIF11 100%); higher = more cells with five or more nucleoli
# Protocol: as §1
# MCF10A [3] = test: percent viability (nuclei count relative to siNT); higher = more viable cells
# Protocol: as §1
Sequence,one-nucleolus phenotype percent effect (MCF10A [1]),5+ nucleoli phenotype percent effect (MCF10A [2]),percent viability (MCF10A [3])
UCUGCUCAUACCCCAUGGUUUCU [hsa-miR-767-3p],-21.6%,54.2%,129%
UCUUCUCUGUUUUGGCCAUGUG [hsa-miR-942],-0.685%,12.1%,73.4%
AAAAGUAAUCACUGUUUUUGCC [hsa-miR-548y],-21.4%,42.1%,73.4%
CAGUGCAAGUGUAGAUGCCGA [hsa-miR-3666],-18.2%,66.7%,150%
AACAUCACAGCAAGUCUGUGCU [hsa-miR-499a-3p],-7.15%,-38.3%,49.3%
GUGUGGCCGGCAGGCGGGUGG [hsa-miR-7108-5p],-12.6%,6.78%,55.9%
UGAGAACUGAAUUCCAUAGGCU [hsa-miR-146b-5p],0.774%,-25.8%,52.1%
UGACCUGGGACUCGGACAGCUG [hsa-miR-3661],35.2%,-25.2%,31.7%
GGAUUCCUGGAAAUACUGUUCU [hsa-miR-145-3p],9.95%,-19.5%,55.6%
CUGGGAGGUCAAGGCUGCAGU [hsa-miR-1273h-5p],11.3%,11.3%,38.1%
GGCGGAGGGAAGUAGGUCCGUUGGU [hsa-miR-658],-9.25%,5.47%,63%
AAUAAAGUUCAUGUAUGGCAA [hsa-miR-5590-3p],-1.04%,-19%,61.8%
AAGGCCUUUCUGAACCUUCAGA [hsa-miR-3142],19.5%,-15%,23.2%
AAAGGUCAUUGUAAGGUUAAUGC [hsa-miR-3974],63.7%,-42%,39.8%
AUUGAAACCUCUAAGAGUGGA [hsa-miR-510-3p],-2.4%,8.91%,41.7%
AAUGGAUUUUUGGAGCAGG [hsa-miR-1246],3.6%,-4.08%,33%
UCACAAGUCAGGCUCUUGGGAC [hsa-miR-125b-2-3p],59.8%,-44.2%,37.1%
GUGGGUUGGGGCGGGCUCUG [hsa-miR-3940-5p],-5.1%,-4.07%,52.7%
AACUCUAGCCUGAGCAACAG [hsa-miR-5684],2.62%,-2.91%,40.5%
CAGGCAGAAGUGGGGCUGACAGG [hsa-miR-6511a-5p],6.88%,3.66%,69.3%
UGAGGACAGGGCAAAUUCACGA [hsa-miR-5004-5p],10%,-12.8%,36%
CUUUCAGUCAGAUGUUUGCUGC [hsa-miR-30d-3p],-17.5%,59.2%,131%
UUUUUCAUUAUUGCUCCUGACC [hsa-miR-335-3p],-20.3%,26.8%,157%
UCCCUGGAGUUUCUUCUU [hsa-miR-4308],-7.67%,27.5%,53.7%

Sequence,one-nucleolus phenotype percent effect (MCF10A [1]),5+ nucleoli phenotype percent effect (MCF10A [2]),percent viability (MCF10A [3])
CUUUGAGCACAUGAGCAGACGGA [hsa-miR-8055],-6.93%,-14.2%,92.5%
GGAUGGAGGAGGGGUCU [hsa-miR-4534],-5.6%,31%,46.8%
ACUUCACCUGGUCCACUAGCCGU [hsa-miR-412],-11.5%,26%,118%
AUAUACAGGGGGAGACUCUCAU [hsa-miR-1185-2-3p],21.3%,-11.3%,25.8%
AUCACAUUGCCAGGGAUUACC [hsa-miR-23b-3p],0.34%,-9.04%,103%
AAACCUGUGUUGUUCAAGAGUC [hsa-miR-649],-16.6%,34.7%,113%
UCCUCAUCACACUGCACCUUAG [hsa-miR-6072],13.4%,-18.4%,32.4%
CUAGGUGGGGGGCUUGAAGC [hsa-miR-6802-5p],9.83%,-17%,33.9%
AAGGGAGGAGGAGCGGAGGGGCCCU [hsa-miR-4739],21.1%,4.78%,19.6%
AUCAACAGACAUUAAUUGGGCGC [hsa-miR-421],23.1%,-13.6%,61.3%
AAUAAUACAUGGUUGAUCUUU [hsa-miR-369-3p],-9.36%,11.7%,162%
UGUGUCACUCGAUGACCACUGU [hsa-miR-597],13.9%,-3.83%,47.8%
AGGGAAAAAAAAAAGGAUUUGUC [hsa-miR-4668-5p],-20.9%,61.6%,65%
AUUCUAAGUGCCUUGGCC [hsa-miR-4263],-0.791%,-1.39%,37.3%
CCUGUUCUCCAUUACUUGGCUC [hsa-miR-26b-3p],7.43%,-23.3%,63.1%
UGAGAACCACGUCUGCUCUGAG [hsa-miR-589-5p],-14.3%,-4.96%,88.9%
GGUCGUAUGUGUGACGCCAUUU [hsa-miR-489-5p],-3.74%,-3.91%,63%
AAGUGCUUCCUUUUAGAGGGUU [hsa-miR-520f],4.79%,26.9%,46.9%
UCAUCCCCCUCGCCCUCUCAG [hsa-miR-6729-3p],-21.1%,10.2%,58.8%
UUGGGUUUUCUCUUCAAUCCAG [hsa-miR-6839-3p],14.2%,-18.2%,22.3%
UAAAGUGGCAGAGUAUAGACAC [hsa-miR-4796-3p],-1.57%,-8.21%,75.7%
GUGAAUUACCGAAGGGCCAUAA [hsa-miR-183-3p],9.97%,-32%,56.8%
CUAGUGCUCUCCGUUACAAGUA [hsa-miR-4473],-11.7%,18%,37.8%
UCUGUGCCCCUACUUCCCAG [hsa-miR-6889-3p],-15.5%,16.2%,63%
